Measured values from US20160237162A1.

Key:
[1] = molecular target: human HER3 on human cancer cells (human) (UniProt P21860)
[2] = molecular target: human HER3 on human cancer cells (human) (UniProt P21860); remark: listed apart in the source
[3] = molecular target: human HER3 on human cancer cells (human) (UniProt P21860); remark: listed apart in the source
[4] = molecular target: human HER3 on human cancer cells (human) (UniProt P21860); remark: listed apart in the source
[5] = molecular target: human HER3 on human cancer cells (human) (UniProt P21860); remark: listed apart in the source
[6] = molecular target: human HER3 on human cancer cells (human) (UniProt P21860); remark: listed apart in the source
[7] = molecular target: human HER3 on human cancer cells (human) (UniProt P21860); remark: listed apart in the source
[8] = molecular target: human HER3 on human cancer cells (human) (UniProt P21860); remark: listed apart in the source
[9] = molecular target: human HER3 on human cancer cells (human) (UniProt P21860); remark: listed apart in the source
[10] = molecular target: human HER3 on human cancer cells (human) (UniProt P21860); remark: listed apart in the source
[11] = molecular target: human HER3 on human cancer cells (human) (UniProt P21860); remark: listed apart in the source
[12] = molecular target: human HER3 on human cancer cells (human) (UniProt P21860); experiment: cell-based or functional assay

- IC50; suppression of HRG-induced pHER3 (pHER3 ELISA), MCF-7 cells [1]: 33 ng/ml
- Maximum inhibition %; suppression of HRG-induced pHER3 (pHER3 ELISA), MCF-7 cells [1]: 77%
- IC50; growth suppression (CellTiter-Glo, 6 days), MDA-MB-175 cells [2]: 0.99 µg/mL
- Maximum inhibition %; growth suppression (CellTiter-Glo, 6 days), MDA-MB-175 cells [2]: 39%
- IC50; growth suppression (CellTiter-Glo, 6 days), HMCB melanoma cells [3]: 1.73 µg/mL
- IC50; suppression of pHER3 (pHER3 ELISA), HCC827 cells [4]: 23 ng/ml
- Maximum inhibition %; suppression of pHER3 (pHER3 ELISA), HCC827 cells [4]: 41%
- IC50; suppression of pHER3 (pHER3 ELISA), EGFR-TKI (gefitinib)-resistant HCC827 cells [5]: 31 ng/ml
- Maximum inhibition %; suppression of pHER3 (pHER3 ELISA), EGFR-TKI (gefitinib)-resistant HCC827 cells [5]: 24%
- IC50; suppression of pHER3 (pHER3 ELISA), MKN45 cells [6]: 16.1 ng/ml
- Maximum inhibition %; suppression of pHER3 (pHER3 ELISA), MKN45 cells [6]: 58%
- IC50; suppression of pHER3 (pHER3 ELISA), Kato III cells [7]: 9.6 ng/ml
- Maximum inhibition %; suppression of pHER3 (pHER3 ELISA), Kato III cells [7]: 62%
- IC50; suppression of pHER3 (pHER3 ELISA), BT-474 cells [8]: > 10 µg/ml
- IC50; suppression of pAKT (Meso-Scale Discovery assay), MKN45 cells [9]: 15.8 ng/ml
- Maximum inhibition %; suppression of pAKT (Meso-Scale Discovery assay), MKN45 cells [9]: 38%
- IC50; suppression of pAKT (Meso-Scale Discovery assay), Kato III cells [10]: 6.2 ng/ml
- Maximum inhibition %; suppression of pAKT (Meso-Scale Discovery assay), Kato III cells [10]: 22%
- IC50; suppression of pAKT (Meso-Scale Discovery assay), BT-474 cells [11]: > 10 µg/ml
- Max inhibition%; suppression of pAKT (Meso-Scale Discovery assay), BT-474 cells [11]: 1%
- fold decrease in pHER3 ELISA in HCC827 cells; potency against 2C2 [12]: 10 fold
- pHER3 ELISA in Kato III cells, maximal pHER3 suppression [12]: 60%
Substance: AMG anti-HER3 monoclonal antibody (U1-59)
